{"source": "patent US20220275059A1", "about": "(HARBOUR ANTIBODIES, published 2022)", "binders": {"B1": {"name": "2.6h11 (antibody, V domains shown)", "VH": "EVQLVESGGGLVQPGRSLRLSCTASGFTFGDYVMSWFRQAPGKGLEWVGFIRSKAHGGTTEYAASVNGRFSISRDDSKTIAYLQMNSLKSEDTAVYYCTWLRNDYYYGMDVWGLGTTVTVSS", "VL": "DIMMTQSPLSLPVTPGEPASISCRSSQRLLHSNGYSYVDWYLQKPGQSPQLLIYLGSDRASGVPDRFSGSGSGTDFTLKISRVEAEDVGVYYCMQTLQTPWTFGQGTKVEIKR"}}, "target": "peptide 24.end", "assay": "ELISA on coated peptide 24.end, A450 [B]"}
{"binder": "B1", "values": [{"measurement": "binding result", "result": "no binding"}]}
